# Source: patent publication US5846743A, “Polyphoshoinositide binding peptides for intracellular drug delivery” (Brigham and Women's Hospital, Inc., priority 1996, dated 1998)
# Where a SMILES comes first, the peptide text is derived from it. The star is where a group is joined. RhodamineB = CCN(CC)c1ccc2c(-c3ccccc3C(=O)*)c3ccc(=[N+](CC)CC)cc-3oc2c1
# Tested on: cells exposed to conjugate in culture medium, regardless of the cell type
smiles,measurement,value
CCN(CC)c1ccc2c(-c3ccccc3C(=O)N[C@@H](CCC(N)=O)C(=O)N[C@@H](CCCNC(=N)N)C(=O)N[C@@H](CC(C)C)C(=O)N[C@@H](Cc3ccccc3)C(=O)N[C@@H](CCC(N)=O)C(=O)N[C@H](C(=O)N[C@@H](CCCCN)C(=O)NCC(=O)N[C@@H](CCCNC(=N)N)C(=O)N[C@@H](CCCNC(=N)N)C(=O)O)C(C)C)c3ccc(=[N+](CC)CC)cc-3oc2c1 [rhodamine-Sequence I.D. No. 2] (RhodamineB-QRLFQVKGRR-OH),intracellular free calcium increase caused by conjugate,did not result in uptake of free fluorescein or induce a large increase in intracellular free calcium
